Source: paper PMC6344286 (Arteriosclerosis, thrombosis, and vascular biology, 2019)

Assays:
[1] = molecular target: T1, p47phox, recombinant wild type (human), P14598; test: non-reducing SDS-PAGE of a disulfide-linked complex; details: remark: other sources report otherwise
T1 chain: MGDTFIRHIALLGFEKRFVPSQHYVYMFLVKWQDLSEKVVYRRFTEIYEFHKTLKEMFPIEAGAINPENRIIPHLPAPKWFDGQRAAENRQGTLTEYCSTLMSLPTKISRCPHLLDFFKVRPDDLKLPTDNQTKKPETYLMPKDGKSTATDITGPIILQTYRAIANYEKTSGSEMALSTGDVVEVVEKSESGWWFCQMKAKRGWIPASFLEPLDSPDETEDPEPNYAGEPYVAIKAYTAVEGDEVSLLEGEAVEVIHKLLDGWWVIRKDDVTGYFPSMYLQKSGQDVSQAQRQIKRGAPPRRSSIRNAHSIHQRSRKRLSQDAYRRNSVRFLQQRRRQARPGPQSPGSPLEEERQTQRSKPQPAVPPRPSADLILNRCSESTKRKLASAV

[2] = molecular target: Protein disulfide isomerase A1 (PDI), recombinant wild type (human, UniProt P07237 18-508); test: as above
Chain of Protein disulfide isomerase A1 (PDI), recombinant wild type (P07237 18-508): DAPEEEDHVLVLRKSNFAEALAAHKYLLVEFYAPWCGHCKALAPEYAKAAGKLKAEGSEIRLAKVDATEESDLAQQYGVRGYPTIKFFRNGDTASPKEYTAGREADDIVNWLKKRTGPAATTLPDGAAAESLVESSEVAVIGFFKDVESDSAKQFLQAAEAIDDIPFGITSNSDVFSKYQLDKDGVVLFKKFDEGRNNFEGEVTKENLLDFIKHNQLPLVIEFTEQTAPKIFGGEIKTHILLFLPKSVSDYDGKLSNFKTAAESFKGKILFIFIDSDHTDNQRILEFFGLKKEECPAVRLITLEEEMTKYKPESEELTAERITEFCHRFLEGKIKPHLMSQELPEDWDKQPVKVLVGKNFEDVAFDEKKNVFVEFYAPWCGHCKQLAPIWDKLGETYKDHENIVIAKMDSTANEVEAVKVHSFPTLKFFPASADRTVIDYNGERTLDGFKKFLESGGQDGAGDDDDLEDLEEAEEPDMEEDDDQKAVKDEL

stoichiometry N [1]: 2
binding result [2]: binds
B1: p47phox, recombinant wild type (natural protein, human, UniProt P14598 1-390, looked up)
chain: T1 chain
